Test results as given in PMC4161475.

Biological target: G-actin (rabbit skeletal muscle actin, monomeric) (rabbit) (UniProt P68135)
Assay: ELISA; solid-phase assay: wells coated with 5 µM G-actin in PBS, 5 µM protein added, detected with anti-EhCoactosin antibody; in the presence of Ca2+ (2 mM) or EGTA (5 mM)

EhCoactosin with the C-terminal 14 residues deleted (domain or fragment)
percent decrease in binding against WT: 33%
